Results published in patent US20150050211A1 (UNIVERSITY OF SOUTHERN CALIFORNIA, published 2015).

Legend:
Assay in all cases: cell-based or functional assay
[1] = molecular target: Her-2 (Human epithelial growth factor 2) on SKBR-3 cells (human) (UniProt P04626)
[2] = molecular target: T1, Her-2 (Human epithelial growth factor 2) on SKBR-3 cells (human, UniProt P04626 23-1255)
[3] = molecular target: T1, Her-2 (Human epithelial growth factor …); remark: listed apart in the source

With AHNP (peptide) the IC50, inhibition of proliferation of Her-2 positive cells (SKBR-3), BrdU incorporation [1] was 67 µM.

B1: Peptide 1 (peptide)
peptide: MAVYVHYHK
modifications: not fully specified; V is N-methyl norvaline (positions 3 and 5); cyclized from the lysine side chain to the N-terminus
B1 was tested, and the “fold improvement of EC50 over HRAP, BrdU cell proliferation assay” value [2] was ~450 fold and the “IC50, inhibition of proliferation of Her-2 positive cells (SKBR-3), BrdU incorporation” value [3] was 0.52 µM.

B2: Peptide D (peptide)
peptide: MVCVVLYDDK
modifications: not fully specified; N-methyl norvaline at positions 4 and 5 (position 2 is Val, per paragraph 127); cyclized from the lysine side chain to the N-terminus
B2 was tested, and the “fold enhancement of EC50 over ANHP, BrdU cell proliferation assay” value [2] was ~110 fold and the “IC50, inhibition of proliferation of Her-2 positive cells (SKBR-3), BrdU incorporation” value [3] was 0.64 µM.
